Molecular target: E-cadherin (canine (endogenous in MDCK))
Assay: co-IP; 1 mg MDCK lysate (RIPA buffer) from Mock or DDR1-knockdown (Sh-DDR1) cells, incubated overnight at 4 °C with 1 μg anti-E-cadherin antibody, protein G-sepharose beads; immunoblot with anti-clathrin heavy chain; control antibody as negative control

fold increase of the clathrin/E-cadherin co-IP ratio, Sh-DDR1 cells against Mock cells: 3.5 fold
Substance: clathrin heavy chain (natural protein)
